Assay results reported in US20120208867, “HMGB1 BINDING NUCLEIC ACID MOLECULE AND APPLICATIONS THEREOF” (published 2012).

Legend:
Settings in all cases: tags: N-terminal His-tag
His-tagged HMGB1 [1] = target: T1, His-tagged HMGB1 (UniProt P09429 P09429:1-215); test: SPR; superior to R8c6_1; 160 nM protein
Procedure: (§1) First, a sensor chip (trade name: Sensor Chip SA, manufactured by GE Heathcare) specially made for a BIACORE was set on the aforementioned BLACORE (registered trademark) X. Biotinylate deoxythymidine (5 μmol/L) was injected into the flow cell 2 of the aforementioned sensor chip using a running buffer and subjected to binding until the signal intensity (RU: resonance unit) reached about 1000 RU. For the aforementioned biotinylated deoxythymidine, 20-base-long deoxythymidine in which the 5′ end was biotinylated was used. Then, 10 μg/mL of an RNA aptamer was injected at a flow rate of 20 μL/min for 1 min into the aforementioned flow cells 1 and 2 of the aforementioned chip using a running buffer and subjected to binding until the signal intensity reached about 1000 RU. Next, […] of 20 μL/min for 30 sec using the aforementioned running buffer, and under the same conditions the aforementioned running buffer was allowed to flow continuously for washing. Simultaneously with the injection of the aforementioned His-tag-added HMGB1 and washing with the aforementioned running buffer, signal intensity was measured. […] In a comparative example, signal intensity was measured in the same manner except that the aforementioned comparative example RNA was used in place of the aforementioned example RNA aptamers. […]

His-tagged HMGB1 [2] = target: T1, His-tagged HMGB1; test: SPR; 150 nM protein; excellent binding
Procedure: (§2) The ability of each of the aforementioned RNA aptamers to bind to HMGB1 in which His-tag was added to the N-terminus (His-tag-added HMGB1) was examined. For the analysis of the aforementioned binding ability, a BIACORE (registered trademark) X (manufactured by GE Healthcare) was used according to its instruction manual.
First, a sensor chip (trade name: Sensor Chip SA, manufactured by GE Heathcare) specially made for a BIACORE was set on the aforementioned BLACORE (registered trademark) X. Biotinylate deoxythymidine (5 μmol/L) was injected into the flow cell 2 of the aforementioned sensor chip using a running buffer and subjected to binding until the signal intensity (RU: resonance unit) reached about 1000 RU. For the aforementioned biotinylated deoxythymidine, 20-base-long deoxythymidine in which the 5′ end was biotinylated was used. Then, 10 μg/mL of an RNA aptamer was injected at a flow rate of 20 μL/min for 1 min into the aforementioned flow cells 1 and 2 of the aforementioned chip using a running buffer and subjected to binding until the signal intensity reached about 1000 RU. Next, […] of 20 μL/min for 30 sec using the aforementioned running buffer, and under the same conditions the aforementioned running buffer was allowed to flow continuously for washing. Simultaneously with the injection of the aforementioned His-tag-added HMGB1 and washing with the aforementioned running buffer, signal intensity was measured. The aforementioned running buffer was composed of 20 mmol/L of HEPES, 500 mmol/L of NaCl, 0.1 mmol/L of MgCl₂, and 0.1% Triton X-100 (registered trademark), with the pH thereof being 7.2. As a blocking agent for suppressing nonspecific binding, tRNA was used in a concentration of 1 mg/mL. In a comparative example, signal intensity was measured in the same manner except that the aforementioned comparative example RNA was used in place of the aforementioned example RNA aptamers.

His-tagged HMGB1 [3] = target: T1, His-tagged HMGB1; test: SPR; 635 nM protein, 500 mM NaCl
Procedure: First, a sensor chip (trade name: Sensor Chip SA, manufactured by GE Heathcare) specially made for a BIACORE was set on the aforementioned BLACORE (registered trademark) X. Biotinylate deoxythymidine (5 μmol/L) was injected into the flow cell 2 of the aforementioned sensor chip using a running buffer and subjected to binding until the signal intensity (RU: resonance unit) reached about 1000 RU. For the aforementioned biotinylated deoxythymidine, 20-base-long deoxythymidine in which the 5′ end was biotinylated was used. Then, 10 μg/mL of an RNA aptamer was injected at a flow rate of 20 μL/min for 1 min into the aforementioned flow cells 1 and 2 of the aforementioned chip using a running buffer and subjected to binding until the signal intensity reached about 1000 RU. Next, 675 nmol/L of the aforementioned His-tag-added HMGB1 was injected at a flow rate of 20 μL/min for 30 sec using the aforementioned running buffer, and under the same conditions the aforementioned running buffer was allowed to flow continuously for washing. Simultaneously with the injection of the aforementioned His-tag-added HMGB1 and washing with the aforementioned running buffer, signal intensity was measured. The aforementioned running buffer was composed of 20 mmol/L of HEPES, 500 mmol/L of NaCl, 0.1 mmol/L of MgCl₂, and 0.1% Triton X-100 (registered trademark), with the pH thereof being 7.2. As a blocking agent for suppressing nonspecific binding, tRNA was used in a concentration of 1 mg/mL. In a comparative example, signal intensity was measured in the same manner except that the aforementioned comparative example RNA was used in place of the aforementioned example RNA aptamers.
An analysis of ability to bind to His-tag-added HMGB1 was carried out in the same manner as in (2) above of the aforementioned Example 1 except that the aforementioned RNA aptamers were used, the concentration of the aforementioned His-tag-added HMGB1 was 635 nmol/L, and the injection time of the aforementioned His-tag-added HMGB1 was 60 seconds. […]

His-tagged HMGB1 [4] = target: T1, His-tagged HMGB1; test: SPR; 200 nM protein; comparable to unmodified R8c6_1 at 150 mM NaCl
His-tagged HMGB1 [5] = target: T1, His-tagged HMGB1; test: SPR; 200 nM protein, 150 mM NaCl; excellent binding
Procedure: as §1

His-tagged HMGB1 [6] = target: T1, His-tagged HMGB1; test: SPR; 150 nM protein; listed in Table 7
Procedure: as §2
First, a sensor chip (trade name: Sensor Chip SA, manufactured by GE Heathcare) specially made for a BIACORE was set on the aforementioned BLACORE (registered trademark) X. Biotinylate deoxythymidine (5 μmol/L) was injected into the flow cell 2 of the aforementioned sensor chip using a running buffer and subjected to binding until the signal intensity (RU: resonance unit) reached about 1000 RU. For the aforementioned biotinylated deoxythymidine, 20-base-long deoxythymidine in which the 5′ end was biotinylated was used. […] Simultaneously with the injection of the aforementioned His-tag-added HMGB1 and washing with the aforementioned running buffer, signal intensity was measured. […] In a comparative example, signal intensity was measured in the same manner except that the aforementioned comparative example RNA was used in place of the aforementioned example RNA aptamers.

His-tagged HMGB1 [7] = target: T1, His-tagged HMGB1; test: SPR; comparable to unmodified R8c6_1 at 500 and 150 mM NaCl

T1 sequence (P09429 whole entry, one chain of several): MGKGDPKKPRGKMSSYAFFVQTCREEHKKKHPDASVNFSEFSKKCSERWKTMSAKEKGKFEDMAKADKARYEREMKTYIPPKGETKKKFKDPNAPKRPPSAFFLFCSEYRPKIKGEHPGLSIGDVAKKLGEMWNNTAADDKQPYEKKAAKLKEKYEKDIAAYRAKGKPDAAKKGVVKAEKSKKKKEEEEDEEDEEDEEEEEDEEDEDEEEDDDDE

B1: R8c6_1-25 (ssRNA)
RNA: GGGUAAGACACGUAGCACCAGUCUGACGUUUGUCGUCAGUGCCUGGACGUGCAGU
binding result (His-tagged HMGB1 [1]): binds

B2: 2'F-R8c6_1-25 (ssRNA)
RNA: GGGUAAGACACGUAGCACCAGUCUGACGUUUGUCGUCAGUGCCUGGACGUGCAGU
modifications: 2'-F on all C and U
binding result (His-tagged HMGB1 [2]): binds

B3: 2'F-R8c6_1-21-S8 (ssRNA)
RNA: GGGACAGUAAGACACGUAGCACCAGUGCCUGGACGUGCAGU
modifications: 2'-F on all C and U
binding result (His-tagged HMGB1 [2]): binds

B4: R8c6_1-18-S2 (ssRNA)
RNA: GGGAGUACAGUAAGACACGUAGCACCAGUCGCGUUUGUCGCGUGCCUGGACGUGCAGU
binding result (His-tagged HMGB1 [1]): binds

B5: 2'F-R8c6_1-18-S6 (ssRNA)
RNA: GGGAGUACAGUAAGACACGUAGCACCAGUGUGCCUGGACGUGCAGU
modifications: 2'-F on all C and U
binding result (His-tagged HMGB1 [2]): binds

B6: R8c6_1-1 (ssRNA)
RNA: GGGACGCUCACGUACGCUCAGAGUACAGUAAGACACGUAGCACCAGUCUGACGUUUGUCGUCAGUGCCUGGACGUGCAG
binding result (His-tagged HMGB1 [3]): binds

B7: R8c6_1-3 (ssRNA)
RNA: GGGACGCUCACGUACGCUCAGAGUACAGUAAGACACGUAGCACCAGUCUGACGUUUGUCGUCAGUGCCUGGACGUGC
binding result (His-tagged HMGB1 [3]): binds

B8: 2'F-R8c6_1 (2'F-CU-R8c6_1) (ssRNA)
RNA: GGGACGCUCACGUACGCUCAGAGUACAGUAAGACACGUAGCACCAGUCUGACGUUUGUCGUCAGUGCCUGGACGUGCAGU
modifications: 2'-F on all C and U
binding result (His-tagged HMGB1 [4]): binds

B9: 2'F-C-R8c6_1 (ssRNA)
RNA: GGGACGCUCACGUACGCUCAGAGUACAGUAAGACACGUAGCACCAGUCUGACGUUUGUCGUCAGUGCCUGGACGUGCAGU
modifications: 2'-F on all C
binding result (His-tagged HMGB1 [5]): binds

B10: 2'F-U-R8c6_1 (ssRNA)
RNA: GGGACGCUCACGUACGCUCAGAGUACAGUAAGACACGUAGCACCAGUCUGACGUUUGUCGUCAGUGCCUGGACGUGCAGU
modifications: 2'-F on all U
binding result (His-tagged HMGB1 [5]): binds

B11: 2'F-R8c6_1-21-S6 (ssRNA)
RNA: GGGACAGUAAGACACGUAGCACCAGUGUGCCUGGACGUGCAGU
modifications: 2'-F on all C and U
binding result (His-tagged HMGB1 [2]): binds

B12: 2'F-R8c6_1-25-S6A3 (ssRNA)
RNA: GGGUAAGACACGUAGCACCAGUGUGCCUGGACGUGCGU
modifications: 2'-F on all C and U
binding result (His-tagged HMGB1 [6]): binds

B13: 2'F-R8c6_1-18 (ssRNA)
RNA: GGGAGUACAGUAAGACACGUAGCACCAGUCUGACGUUUGUCGUCAGUGCCUGGACGUGCAGU
modifications: 2'-F on all C and U
binding result (His-tagged HMGB1 [7]): binds

B14: R8c6_1-4 (ssRNA)
RNA: GGGACGCUCACGUACGCUCAGAGUACAGUAAGACACGUAGCACCAGUCUGACGUUUGUCGUCAGUGCCUGGACGUG
binding result (His-tagged HMGB1 [3]): binds
